Key:
[1] = molecular target: cynomolgus monkey PCSK9, V5-6xHIS tagged (cynomolgus monkey); test: SPR (Biacore 2000), antibody amine-coupled on CM5 chip, PCSK9 injected, pH 7.4
[2] = molecular target: cynomolgus monkey PCSK9, V5-6xHIS tagged (cynomolgus monkey); test: KinExA solution equilibrium, PCSK9-coated beads; cyno PCSK9
[3] = molecular target: cynomolgus monkey PCSK9, V5-6xHIS tagged (cynomolgus monkey); test: Biacore solution equilibrium assay: PCSK9 mixed with 21B12.1, free PCSK9 read on immobilised 21B12

B1: 16F12, anti-PCSK9 huIgG4 (antibody, V domains shown)
VH: QVHLVESGGGVVQPGRSLRLSCAASGFTFNSFGMHWVRQAPGKGLEWVALIWSDGSDEYYADSVKGRFTISRDNSKNTLYLQMNSLRAEDTAVYYCARAIAALYYYYGMDVWGQGTTVTVSS
VL: QSVLTQPPSVSAAPGQKVTISCSGSSSNIGNNFVSWYQQLPGTAPKLLIYDYNKRPSGIPDRFSGSKSGTSATLGITGLQTGDEADYYCGTWDSSLSAYVFGTGTRVTVLQ
In the case of B1, the Kd [1] is reported as 0.87 nM and the Kd [2] is reported as 0.016 nM.

B2: 21B12, anti-PCSK9 huIgG4 (antibody, V domains shown)
VH: QVQLVQSGAEVKKPGASVKVSCKASGYTLTSYGISWVRQAPGQGLEWMGWVSFYNGNTNYAQKLQGRGTMTTDPSTSTAYMELRSLRSDDTAVYYCARGYGMDVWGQGTTVTVSS
VL: QSALTQPASVSGSPGQSITISCTGTSSDVGGYNSVSWYQQHPGKAPKLMIYEVSNRPSGVSNRFSGSKSGNTASLTISGLQAEDEADYYCNSYTSTSMVFGGGTKLTVLQ
Binder B2 has a Kd [1] of 0.36 nM and a Kd [3] of 0.011 nM.
